# Laboratory results as given in patent US20230183352A1 (published 2023).
# Residue numbers refer to the chain shown, from its start.
# B1: QP199200 (antibody, human IgG1, V domains shown)
# VH: DVQLVESGGGLVQPGGSRKLSCAASGFTFSSFGMHWVRQAPEKGLEWVAYISSGSNSIYYVDTVKGRFTISRDNPKNTLFLQMTSLKSEDTAMYYCARNAYYGNSFDYWGQGTTLTVSS
# VL: DIVMTQSPSSLTVTAGEKVTMSCKSSQSLLNSGNQKNYLTWYQQKPGQPPKLLIYWASTRESGVPDRFTGSGSGTVFTLTISSVQAEDLAVYFCQNNYYYPLTFGAGTKLELK
# notes: Chimeric; also called 43C11; mouse-derived chimeric antibody QP199200
# B2: QP14501448 (antibody, human IgG1, kappa, V domains shown)
# VH: EVQLVESGGGLVQPGGSLRLSCAASGFTFSSFGMHWVRQAPGKGLEWVAYISSGSNSIYYVDTVKGRFTISRDNAKNSLYLQMNSLRDEDTAVYYCARNAYYGNSFDYWGQGTLVTVSS
# VL: DIVMTQSPDSLAVSLGERATISCKSSQSLLNSGNQKNYLTWYQQKPGQPPKLLIYWASTRESGVPDRFTGSGSGTVFTLTISSLQAEDVAVYFCQNNYYYPLTFGGGTKVEIKR
# notes: Humanized from QP199200
# B3: QP14491448 (antibody, human IgG1, kappa, V domains shown)
# VH: B2 VH with A49S
# VL: B2 VL
# notes: Humanized from QP199200
# B4: QP14501446 (antibody, human IgG1, kappa, V domains shown)
# VH: B2 VH
# VL: B2 VL with S22N, T69S, V76D, F93Y
# notes: Humanized from QP199200
# B5: QP14441441 (antibody, human IgG1, kappa, V domains shown)
# VH: QVQLVQSGAEVKKPGASVKVSCKASGYAFSSYWMNWVRQAPGQGLEWIGQIYPGNGDTTYNGKFKGRVTMTADKSTSTVYMELSSLRSEDTAVYYCARFVKGNAMDYWGQGTLVTVSS
# VL: B2 VL with T69S, T75I, V76D, L84V, F93Y, N97A, Y99S, L102F, G106Q, V110L
# notes: Humanized from QP192193
# B6: QP14451442 (antibody, human IgG1, kappa, V domains shown)
# VH: B5 VH with Y95F
# VL: DIVMTQSPDSLAVSLGERATISCKSSQSLLNSGNQKNYLTWYQQKPGQPPKMLIYWASTRESGVPDRFSGSGSGIDFTLTISSVQAEDVAVYYCQNAYSYPFTFGQGTKLEIKR
# notes: Humanized from QP192193
# B7: QP192193 (antibody, human IgG1, V domains shown)
# VH: QVQLQQSGAELVRPGSSVKISCKASGYAFSSYWMNWVKQRPGQGLEWIGQIYPGNGDTTYNGKFKGQATLTADKSSSTVYMQLSSLTSEDSAVYFCARFVKGNAMDYWGQGTSVTVSS
# VL: DIVMTQSPSSLTVTAGEKVTMSCKSSQSLLNSGNQKNYLTWYQQNPGQPPKMLIYWASTRESGVPDRFTGSGSGIDFSLTISSVQAEDLALYYCQNAYSYPFTFGSGTKLEIK
# notes: Chimeric; also called 40F1; mouse-derived chimeric antibody QP192193
# Target: T1, Claudin 18.2 (CLDN18.2), expressed on CHOS-CLDN 18.2 / HEK293-CLDN 18.2 / HCC827-CLDN 18.2 cells (human, UniProt P56856-2 1-261)
# T1 construct: whole, on cells; The species is not repeated for the CHOS-CLDN 18.2 cells; also called claudin-18A2
# Test: FACS, CHOS-CLDN18.2 cells
# Protocol: (§1) The initial concentration of the antibody was 20 μg/ml, it was diluted at 1:4, and incubated at 4° C. for 60 min.
Binder,EC50 [µg/mL],max
B1,1.19,165000
B2,0.498,149000
B3,0.666,154000
B4,0.962,143000

# Target: T1, Claudin 18.2 (CLDN18.2), expressed on …
# Test: FACS, CHOS-CLDN18.2 cells
# Remark: another data set of the same source
# Protocol: as §1
Binder,EC50 [µg/mL],max
B5,0.484,175000
B6,0.344,177000
B7,0.361,177000

# Target: T1, Claudin 18.2 (CLDN18.2), expressed on …
# Test: FACS, CHOS-CLDN18.2 cells, 5 µg/ml
# Protocol: as §1
row,Binder,FACS reading
1,B1,165000
2,B2,149000
3,B3,154000
4,B4,143000

# Target: T1, Claudin 18.2 (CLDN18.2), expressed on …
# Test: FACS, CHOS-CLDN18.2 cells, 5 µg/ml
# Remark: another data set of the same source
# Protocol: as §1
row,Binder,FACS reading
1,B5,151000
2,B6,138000
3,B7,177000

# Target: T1, Claudin 18.2 (CLDN18.2), expressed on …
# Test: FACS, CHOS-CLDN18.2 cells, 20 µg/ml
# Protocol: as §1
row,Binder,FACS reading
1,B1,218000
2,B2,117000
3,B3,183000
4,B4,160000

# Target: T1, Claudin 18.2 (CLDN18.2), expressed on …
# Test: FACS, CHOS-CLDN18.2 cells, 20 µg/ml
# Remark: another data set of the same source
# Protocol: as §1
row,Binder,FACS reading
1,B5,175000
2,B6,177000
3,B7,155000

# Target: T1, Claudin 18.2 (CLDN18.2), expressed on …
# Test: FACS, CHOS-CLDN18.2 cells, 10 µg/ml
# Protocol: (§2) The initial concentration of the antibody was 20 μg/mkit was diluted at 1:4, and incubated at 4° C. for 60 min.
row,Binder,MFI
1,B5,693000
2,B6,653000
3,B1,514000
4,B2,540000
5,B3,484000
6,B4,505000
7,B7,644000

# Target: T1, Claudin 18.2 (CLDN18.2), expressed on …
# Test: FACS, CHOS-CLDN18.2 cells, 0.005 µg/ml
# Protocol: as §1
row,Binder,FACS reading
1,B1,2760
2,B2,2480
3,B3,2410
4,B4,2330

# Target: T1, Claudin 18.2 (CLDN18.2), expressed on …
# Test: FACS, CHOS-CLDN18.2 cells, 0.020 µg/ml
# Protocol: as §1
row,Binder,FACS reading
1,B1,7520
2,B2,7460
3,B3,6320
4,B4,6350

# Target: T1, Claudin 18.2 (CLDN18.2), expressed on …
# Test: FACS, CHOS-CLDN18.2 cells, 0.078 µg/ml
# Protocol: as §1
row,Binder,FACS reading
1,B1,19900
2,B2,14200
3,B3,19200
4,B4,13900

# Target: T1, Claudin 18.2 (CLDN18.2), expressed on …
# Test: FACS, CHOS-CLDN18.2 cells, 0.313 µg/ml
# Protocol: as §1
row,Binder,FACS reading
1,B1,50600
2,B2,45600
3,B3,45100
4,B4,39500

# Target: T1, Claudin 18.2 (CLDN18.2), expressed on …
# Test: FACS, CHOS-CLDN18.2 cells, 1.250 µg/ml
# Protocol: as §1
row,Binder,FACS reading
1,B1,132000
2,B2,108000
3,B3,132000
4,B4,96200

# Target: T1, Claudin 18.2 (CLDN18.2), expressed on …
# Test: FACS, CHOS-CLDN18.2 cells, 0.005 µg/ml
# Remark: another data set of the same source
# Protocol: as §1
row,Binder,FACS reading
1,B5,4230
2,B6,4790
3,B7,3790

# Target: T1, Claudin 18.2 (CLDN18.2), expressed on …
# Test: FACS, CHOS-CLDN18.2 cells, 0.020 µg/ml
# Remark: another data set of the same source
# Protocol: as §1
row,Binder,FACS reading
1,B5,10100
2,B6,11100
3,B7,11400

# Target: T1, Claudin 18.2 (CLDN18.2), expressed on …
# Test: FACS, CHOS-CLDN18.2 cells, 0.078 µg/ml
# Remark: another data set of the same source
# Protocol: as §1
row,Binder,FACS reading
1,B5,27300
2,B6,29800
3,B7,27800

# Target: T1, Claudin 18.2 (CLDN18.2), expressed on …
# Test: FACS, CHOS-CLDN18.2 cells, 0.313 µg/ml
# Remark: another data set of the same source
# Protocol: as §1
row,Binder,FACS reading
1,B5,74700
2,B6,82300
3,B7,74600

# Target: T1, Claudin 18.2 (CLDN18.2), expressed on …
# Test: FACS, CHOS-CLDN18.2 cells, 1.250 µg/ml
# Remark: another data set of the same source
# Protocol: as §1
row,Binder,FACS reading
1,B5,125000
2,B6,137000
3,B7,168000

# Target: T1, Claudin 18.2 (CLDN18.2), expressed on …
# Test: FACS, CHOS-CLDN18.2 cells, 0 µg/ml (background)
# Protocol: as §1
row,Binder,FACS reading
1,B1,732
2,B2,732
3,B3,732
4,B4,732

# Target: T1, Claudin 18.2 (CLDN18.2), expressed on …
# Test: FACS, CHOS-CLDN18.2 cells, 0 µg/ml (background)
# Remark: another data set of the same source
# Protocol: as §1
row,Binder,FACS reading
1,B5,732
2,B6,732
3,B7,732

# Target: T1, Claudin 18.2 (CLDN18.2), expressed on …
# Test: FACS, MFI on CHOS-CLDN18.2 over MFI on CHOS-CLDN18.1, 10 µg/ml
# Protocol: as §2
row,Binder,CLDN18.2/CLDN18.1 (MFI ratio)
1,B5,608
2,B6,463
3,B1,560
4,B2,501
5,B3,487
6,B4,510
7,B7,627
